Measurements published in patent publication US20030203372A1, “Analysis method” (priority 2000, published 2003).

Assays:
[1] = tested on: primary human cell cultures (11 cell types); experiment: Custom gene array, 11 human cell types in normoxia or hypoxia for 6 hr and 18 hr; assay type: cell-based;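 on mRNA expression level, #1 HY 18 hr: cell type #1 is adipocyte from subcutaneous adult adipose tissue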;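 on mRNA expression level, #1 HY 6 hr: cell type #1 is adipocyte from subcutaneous adult adipose tissue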;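 on mRNA expression level, #1 NO: cell type #1 is adipocyte from subcutaneous adult adipose tissue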;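 on mRNA expression level, #2 HY 18 hr: cell type #2 is fetal cardiomyocyte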;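 on mRNA expression level, #2 HY 6 hr: cell type #2 is fetal cardiomyocyte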;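 on mRNA expression level, #2 NO: cell type #2 is fetal cardiomyocyte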;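 on mRNA expression level, #3 HY 6 hr: cell type #3 is human umbilical vein endothelial cells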;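 on mRNA expression level, #3 NO: cell type #3 is human umbilical vein endothelial cells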;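 on mRNA expression level, #4 HY 18 hr: cell type #4 is adult dermal fibroblast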;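 on mRNA expression level, #4 HY 6 hr: cell type #4 is adult dermal fibroblast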;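 on mRNA expression level, #4 NO: cell type #4 is adult dermal fibroblast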;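 on mRNA expression level, #5 HY 6 hr: cell type #5 is adult hepatocyte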;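 on mRNA expression level, #5 NO: cell type #5 is adult hepatocyte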;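 on mRNA expression level, #6 HY 6 hr: cell type #6 is blood-derived macrophage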;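 on mRNA expression level, #6 NO: cell type #6 is blood-derived macrophage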
Summary of the method: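 Values are each gene's expression relative to its median over all cell types and conditions, after per-array normalisation to control genes and merging of replicate arrays. Cells were 11 human types, mostly unmodified primary cultures, kept in normoxia or exposed to hypoxia for 6 hr or 18 hr.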

human macrophages = experiment: Custom gene array, macrophages with no cytokines, IL-10 or LPS + IFN, in normoxia and hypoxia; assay type: cell-based; conditions: Table 15, referenced to the median value of that gene throughout all 6 conditions
Method: Macrophages were derived and cultured as described elsewhere in the specification. A total of 6 experimental conditions were analysed, as shown below. Where cells were treated with cytokines or hypoxia (0.1% oxygen), this was for 6 hr. Lipopolysaccharide (LPS) (from E.coli 026:B6; Sigma), gamma Interferon (IFN) and Interleukin-10 (IL-10) were all used at a final concentration of 100 ng/ml. The effect of gamma Interferon and Lipopolysaccharide is to activate macrophages, with a Th1 biased phenotype, as found in many inflammatory conditions. Interleukin-10 is a Th2 cytokine and de-activates macrophages, and suppresses their effector functions.

B1: p1E7 (nucleic acid, listed as Homo Sapiens)
DNA: GCTTGAGATCTCCAGCCTTACCGCGGCTCGAAATGGCCCCAACTGCTCCTGCACCACTGGTGTCTCCTGCANCTGCACCGGCTCCTGCAAGTGCAAAGAGTGCAAATGACCTCCTGCAAGAAGAGCTGCTGNNCTGCTGCCCCGTGGTGTGCAAGTGTGCCACGGTGTGTCTGCAAAGGGACGTTGGAGAACTGCAGCTGCTGTNCTGATGTGGGAACAAGCTCTTCTCCCAGATGTTAATAGAACAAGCTGCACAACCTGGGATTTTTTTTCAATACGATACTTGAGCCATTTTCTGCATTTCTTTTTATTGTTAAATATGTGAGTGACAATAAAACAATTTTGACTTTGAATCTTAAAAA
modifications: EST array clone; misc_feature 72, 132, 133, 205: n = A,T,C or G
mRNA expression level, #1 HY 6 hr ([1]; cell type #1, hypoxia 6 hr): 1.29
mRNA expression level, #1 HY 18 hr ([1]; cell type #1, hypoxia 18 hr): 1.63
mRNA expression level, #1 NO ([1]; cell type #1, normoxia): 1.20
mRNA expression level, #2 HY 6 hr ([1]; cell type #2, hypoxia 6 hr): 0.18
mRNA expression level, #2 HY 18 hr ([1]; cell type #2, hypoxia 18 hr): 0.22
mRNA expression level, #2 NO ([1]; cell type #2, normoxia): 0.12
mRNA expression level, #3 HY 6 hr ([1]; cell type #3, hypoxia 6 hr): 1.03
mRNA expression level, #3 HY 18 hr ([1]; cell type #3, hypoxia 18 hr): 0.71
mRNA expression level, #3 NO ([1]; cell type #3, normoxia): 1.40
mRNA expression level, #4 HY 6 hr ([1]; cell type #4, hypoxia 6 hr): 2.17
mRNA expression level, #4 HY 18 hr ([1]; cell type #4, hypoxia 18 hr): 2.85
mRNA expression level, #4 NO ([1]; cell type #4, normoxia): 2.36
mRNA expression level, #5 HY 6 hr ([1]; cell type #5, hypoxia 6 hr): 6.75
mRNA expression level, #5 NO ([1]; cell type #5, normoxia): 4.89
mRNA expression level, #6 HY 6 hr ([1]; cell type #6, hypoxia 6 hr): 1.07
#6 HY 18 hr (mRNA expression level) ([1]; cell type #6, hypoxia 18 hr): 0.86
mRNA expression level, #6 NO ([1]; cell type #6, normoxia): 0.08
#7 HY 6 hr (mRNA expression level) ([1]; cell type #7, hypoxia 6 hr): 2.06
#7 HY 18 hr (mRNA expression level) ([1]; cell type #7, hypoxia 18 hr): 1.32
#7 NO (mRNA expression level) ([1]; cell type #7, normoxia): 0.87
#8 HY 6 hr (mRNA expression level) ([1]; cell type #8, hypoxia 6 hr): 0.75
#8 HY 18 hr (mRNA expression level) ([1]; cell type #8, hypoxia 18 hr): 1.20
#8 NO (mRNA expression level) ([1]; cell type #8, normoxia): 0.03
#9 HY 6 hr (mRNA expression level) ([1]; cell type #9, hypoxia 6 hr): 0.05
#9 HY 18 hr (mRNA expression level) ([1]; cell type #9, hypoxia 18 hr): 0.04
#9 NO (mRNA expression level) ([1]; cell type #9, normoxia): 0.04
#10 HY 6 hr (mRNA expression level) ([1]; cell type #10, hypoxia 6 hr): 2.60
#10 HY 18 hr (mRNA expression level) ([1]; cell type #10, hypoxia 18 hr): 3.60
#10 NO (mRNA expression level) ([1]; cell type #10, normoxia): 3.09
#11 HY 6 hr (mRNA expression level) ([1]; cell type #11, hypoxia 6 hr): 0.70
#11 HY 18 hr (mRNA expression level) ([1]; cell type #11, hypoxia 18 hr): 0.74
#11 NO (mRNA expression level) ([1]; cell type #11, normoxia): 0.60
HIGHEST FOLD CHANGE IN HYPOXIA (hr hypoxia + cell type) ([1]; hypoxia/normoxia induction ratio, 18 hr monocyte): 37.9 (18 hr monocyte) fold
mRNA EXPRESSION (experimental condition) #1 (human macrophages; #1 no cytokines/normoxia): 0.49
mRNA EXPRESSION (experimental condition) #2 (human macrophages; #2 no cytokines/hypoxia): 1.26
mRNA EXPRESSION (experimental condition) #3 (human macrophages; #3 IL-10/normoxia): 0.70
mRNA EXPRESSION (experimental condition) #4 (human macrophages; #4 IL-10/hypoxia): 1.11
mRNA EXPRESSION (experimental condition) #5 (human macrophages; #5 LPS/IFN/normoxia): 1.32
mRNA EXPRESSION (experimental condition) #6 (human macrophages; #6 LPS/IFN/hypoxia): 2.89
